Measurements as given in PMC4339303.

How the values were obtained:
Assay in all cases: proximity ligation
[1] = biological target: single-mutant V5-RTEL1^R1237H (mouse) (mouse)
[2] = biological target: double-mutant V5-RTEL1^C1252A/C1255A (mouse) (mouse)
[3] = biological target: full-length WT V5-RTEL1 (mouse) (mouse)
Chain of full-length WT V5-RTEL1 (mouse) (mouse) (Q0VGM9 whole entry): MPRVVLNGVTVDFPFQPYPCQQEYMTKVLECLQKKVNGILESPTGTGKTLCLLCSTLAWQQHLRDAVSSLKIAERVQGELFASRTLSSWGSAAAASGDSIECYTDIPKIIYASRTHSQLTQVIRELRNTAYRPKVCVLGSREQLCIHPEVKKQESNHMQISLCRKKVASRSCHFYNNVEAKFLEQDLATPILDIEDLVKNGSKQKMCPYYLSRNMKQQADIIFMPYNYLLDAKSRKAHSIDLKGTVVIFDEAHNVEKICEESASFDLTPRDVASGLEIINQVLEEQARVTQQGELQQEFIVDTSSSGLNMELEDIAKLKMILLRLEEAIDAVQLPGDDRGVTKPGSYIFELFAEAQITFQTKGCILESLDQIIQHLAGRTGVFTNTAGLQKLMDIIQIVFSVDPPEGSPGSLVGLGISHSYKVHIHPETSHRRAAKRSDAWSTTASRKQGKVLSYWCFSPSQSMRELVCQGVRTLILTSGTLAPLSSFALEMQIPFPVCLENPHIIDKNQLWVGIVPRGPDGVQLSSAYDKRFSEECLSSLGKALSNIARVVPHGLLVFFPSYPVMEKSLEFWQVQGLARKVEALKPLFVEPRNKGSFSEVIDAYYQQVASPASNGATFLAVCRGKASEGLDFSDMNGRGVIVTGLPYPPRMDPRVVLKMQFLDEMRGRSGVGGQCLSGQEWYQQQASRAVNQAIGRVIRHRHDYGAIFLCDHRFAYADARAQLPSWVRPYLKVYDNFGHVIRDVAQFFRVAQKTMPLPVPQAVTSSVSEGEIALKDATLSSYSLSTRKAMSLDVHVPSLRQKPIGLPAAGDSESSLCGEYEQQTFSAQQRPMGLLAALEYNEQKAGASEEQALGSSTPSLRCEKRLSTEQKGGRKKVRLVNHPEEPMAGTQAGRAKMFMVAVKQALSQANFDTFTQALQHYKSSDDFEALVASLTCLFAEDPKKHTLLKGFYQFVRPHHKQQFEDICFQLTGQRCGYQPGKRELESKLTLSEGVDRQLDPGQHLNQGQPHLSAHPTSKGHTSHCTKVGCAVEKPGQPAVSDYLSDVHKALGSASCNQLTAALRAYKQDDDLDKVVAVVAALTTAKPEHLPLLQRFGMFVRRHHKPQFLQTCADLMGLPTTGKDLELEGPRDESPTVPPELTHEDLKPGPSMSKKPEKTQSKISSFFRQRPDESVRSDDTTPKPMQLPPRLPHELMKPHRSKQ

endogenous PCNA (proliferating cell nuclear antigen) (from UniProt P17918 1-261) (natural protein)
PLA foci per nucleus (PLA foci per nucleus) [1]: 13.4 | PLA foci per nucleus (PLA foci per nucleus) [2]: 11.6 | PLA foci per nucleus (foci per nucleus) [3]: 11.5
